Results: patent US20100196951

Target: MazE antitoxin with the Thrombin-recognition sequence LVPRGS in place of VDGK at positions 38 to 41 (UniProt P0AE72)

Biothinylated Thrombin (Novagen)
removal of the MazE band on SDS-PAGE after overnight Thrombin treatment (0.01 to 0.08 units): the residual MazE protein was successfully removed from the purified MazF sample by Thrombin treatment (lanes 2 to 5)
